# Where “and” joins values, the source holds several entries; their conditions need not be identical. Equal values may be shown once.
# Tests used:
# [1] = target: vacant E. coli 70S ribosome (lacking bound mRNA and tRNAs) (E. coli) (UniProt P0AG67); assay: co-sedimentation
# [2] = target: E. coli RNA polymerase core enzyme (α2ββ′ω) (E. coli) (UniProt P0A7Z4); assay: co-sedimentation
percent bound to the ribosome [1] [%],stoichiometry N (ribosome per RNA polymerase) [2],KD (fit assuming only monomeric holoenzyme) [1] [nM],Kd [1] [nM],percent of RNA polymerase co-migrating with ribosomes [1] [%],stoichiometry N (RNA polymerase per ribosome) [1],Substance
15,,,,,,transcription elongation complex (core RNA polymerase with a bound DNA:RNA scaffold) (from UniProt P0A7Z4;P0A8V2;P0A8T7;P0A800)
,1,,,,,vacant E. coli 70S ribosome (lacking bound mRNA and tRNAs) (from UniProt P0AG67;P0A7V0;P02358;P02359;P0A7X3;P0A7R9;P0A7L0;P0A7R1;P0A7K2;P0A7K6) (complex)
31,,1200,1400,,,E. coli RNA polymerase holoenzyme (core enzyme with bound sigma factor σ70) (from UniProt P0A7Z4;P0A8V2;P0A8T7;P0A800;P00579) (complex)
90,,,930,80,2 and 1,E. coli RNA polymerase core enzyme (α2ββ′ω) (from UniProt P0A7Z4;P0A8V2;P0A8T7;P0A800) (complex)

# From paper PMC5737488
